Measured values taken from patent US20170051047A1 (CANGENE, published 2017).
Where two headings read alike, the source gives them in different places.

Tests used:
[1] = molecular target: T1, Clostridium difficile toxin A (whole toxin A) (Clostridium difficile, UniProt P16154 1-2710)
[2] = molecular target: T2, Clostridium difficile toxin B (whole) (Clostridium difficile, UniProt P18177 2-2366); experiment: Western blot
T2 construct: mature

[3] = molecular target: T1, Clostridium difficile toxin A (whole …); experiment: cell-based or functional assay
[4] = molecular target: T1, Clostridium difficile toxin A (whole …); remark: listed apart in the source

B1: CAN20G1 (antibody, V domains shown)
VH: QIQLVQSGPELKKPGETVKISCKASGYTFTNDGMNWVKQAPGKGLKWMGWINTNTGEPTYVEEFKGRFAFSLETSASTAYLQINNLKNEDTATYFCYVNYDYYTMDCWGQGTSVTVSS
VL: QVVLTQSPAIMSASLGERVTMTCTASSSVISSYLHWYQQKPGSSPKLWIYSTSTLASGVPARFSGSGSGTSYSLTISSMEAEDAATYYCLQYHRSPRTFGGGTKLEIK
Question: With B1 as the binder, how does the Kd [1] read?
Answer: 1.79 nM

Question: What about the koff [1] of the same binder?
Answer: 0.000219 s⁻¹

Question: And the kon [1]?
Answer: 123000 M⁻¹ s⁻¹

Question: Does B1 bind [2]?
Answer: no binding (tested: 1 µg/ml)

Question: What about the “EC50 Value (µg/mL), in vitro toxin A neutralization” value (“EC50 Value (µg/mL)” for short) [3] of the same binder?
Answer: 0.17 µg/mL

B2: CAN20G2 (antibody, V domains shown)
VH: QIQLVQSGPEVKKPGETVKISCKASGYTFTNQGMNWVKQAPGKGLKWMGWINTNTGEPTYTEEFKGRFAFSLETSASTAYLQINNLKNEDTATYFCYVNYDYYTMDFWGQGTSVTVSS
VL: QVVLTQSPAIMSASLGDRVTMTCTASSSVISTYLHWYQQKPGSSPKLWIYSTSTLASGVPPRFSGSGSGTSYSLTISSMEAEDAATYYCLQYHRSPRTFGGGTKLEIK
Question: How did the “EC50 Value (µg/mL)” value [3] turn out when B2 was run?
Answer: 0.0101 µg/mL

B3: CAN20G5 (antibody, V domains shown)
VH: QIQLVQSGPELKKPGETVKISCKASGYSFTNSGMNWVKEAPGKGLKWMGWINTNTGEPTYAEEFMGRFAFSLETSASTAYLQINNLKNEDTATYFCYVNYDYYTIDYWGQGTSVTVSS
VL: QIVLTQSPAIMSASLGERVTMTCTASSSVYSTYLHWYQQKPGSSPKLWIYSTSNLASGVPARFSGSGSGTSYSLTISSMEAEDAATYYCHQYHRSPRTFGGGTKLEIK
Question: With B3 as the binder, how does the Kd [1] read?
Answer: 2.01 nM

Question: And the koff [1]?
Answer: 0.000168 s⁻¹

Question: What about the kon [1] of the same binder?
Answer: 83800 M⁻¹ s⁻¹

Question: Does B3 bind [2]?
Answer: no binding (tested: 1 µg/ml)

Question: What about the “EC50 Value (µg/mL)” value [3] of the same binder?
Answer: 0.13 µg/mL

B4: CAN20G8 (antibody, V domains shown)
VH: QIQLVQSGPELKKPGETVKISCKASGYAFTNDGMNWVKQAPGKGLKWMGWINTNTGEPTYAEEFKGRFAFSLETSASTAYLQINNLKNEDTATYFCYVNYDYYTMDCWGQGTSVTVSS
VL: QVVLTQSPAIMSASLGERVTMTCTASSSVISSYLHWYQQKPGSSPKLWIYSTSILASGVPARFSGSGSGTSYSLTISSMEAEDAATYYCLQYHRSPRTFGGGTKLEIK
Question: How did the Kd [1] turn out when B4 was run?
Answer: 1.65 nM

Question: What about the koff [1] of the same binder?
Answer: 0.000216 s⁻¹

Question: And the kon [1]?
Answer: 131000 M⁻¹ s⁻¹

Question: Does B4 bind [2]?
Answer: no binding (tested: 1 µg/ml)

Question: And the “EC50 Value (µg/mL)” value [3]?
Answer: 0.137 µg/mL

B5: AVA-huCAN20G2 (antibody, V domains shown)
VH: QIQLVQSGPELKKPGETVKISCKASGYTFTNQGMNWVKQAPGKGLKWMGWINTNTGEPTYTADFTGRFAFSLETSVSTAYLQINSLKAEDTATYFCYVNYDYYTMDFWGQGTLVTVSS
VL: DIQMTQSPSSLSASVGDRVTITCSASSSVISTYLNWYQQKPGKAPKVLIYSTSSLHSGVPSRFSGSGSGTDFTLTISSLQPEDFATYYCLQYHRSPRTFGQGTKVEIKR
Question: Which Kd [4] does the source give for B5 here?
Answer: 1.33 nM

Question: What about the koff [4] of the same binder?
Answer: 9.02e-05 s⁻¹

Question: And the kon [4]?
Answer: 54500 M⁻¹ s⁻¹

B6: HE-huCAN20G2 (antibody, V domains shown)
VH: QIQLVQSGPELKKPGETVKISCKASGYTFTNQGMNWVKQAPGKGLKWMGWINTNTGEPTYTADFTGRFAFSLETSVSTAYLQINSLKAEDTATYFCYVNYDYYTMDFWGQGTLVTVSS
VL: DVQLTQSPSIMSASLGDRVTMTCTASSSVISTYLHWYQQKPGSSPKLWIYSTSTLASGVPPRFSGSGSGTDYSLTISSMEPEDAATYYCLQYHRSPRTFGGGTKVEIKR
Question: For B6, which Kd [4] is on record?
Answer: 0.332 nM

Question: And the koff [4]?
Answer: 3.14e-05 s⁻¹

Question: What about the kon [4] of the same binder?
Answer: 93900 M⁻¹ s⁻¹

B7: CDR-huCAN20G2 (antibody, V domains shown)
VH: QVQLVQSGSELKKPGASVKVSCKASGYTFTNQGMNWVRQAPGQGLEWMGWINTNTGEPTYAQGFTGRFVFSLDTSVSTAYLQISSLKAEDTAVYYCYVNYDYYTMDFWGQGTTVTVSS
VL: DIQMTQSPSSLSASVGDRVTITCRASSSVISTYLNWYQQKPGKAPKLLIYSTSSLQSGVPSRFSGSGSGTDFTLTISSLQPEDFATYYCLQYHRSPRTFGGGTKVEIK
Question: With B7 as the binder, how does the Kd [4] read?
Answer: 0.8 nM

Question: And the koff [4]?
Answer: 5.41e-05 s⁻¹

Question: And the kon [4]?
Answer: 67600 M⁻¹ s⁻¹
